According to patent US20230357367A1:
Like-named read-outs stand apart in the source and are kept apart here.

Experiments:
Assay in all cases: cell-based or functional assay
[1] = biological target: WIV1 Spike on pseudovirus (WIV1 (bat SARS-like coronavirus))
[2] = biological target: SARS-CoV-1 Spike on pseudovirus (SARS-CoV-1) (UniProt P59594)
[3] = biological target: WIV1 Spike on pseudovirus (WIV1 (bat SARS-like coronavirus)); remark: listed apart in the source
[4] = biological target: SARS-CoV-1 Spike on pseudovirus (SARS-CoV-1) (UniProt P59594); remark: listed apart in the source
[5] = biological target: spike (SARS-CoV-1) (SARS-CoV-1) (UniProt P59594)
[6] = biological target: spike (WIV-1) (WIV1 (bat SARS-like coronavirus))

| Substance | % neutralization at 4.5 µg/ml, pseudovirus [1] [%] | % neutralization at 4.5 µg/ml, pseudovirus [2] [%] | IC50, pseudovirus neutralization [3] [µg/mL] | IC50, pseudovirus neutralization [4] [µg/mL] | IC50, pseudovirus neutralization [1] [µg/mL] | IC50, pseudovirus neutralization [2] [µg/mL] | Emax, pseudovirus neutralization (% neutralization) [5] | Emax, pseudovirus neutralization (% neutralization) [6] |
| --- | --- | --- | --- | --- | --- | --- | --- | --- |
| AZD1061 (antibody) | 0.8 | 1.2 |  |  |  |  |  |  |
| AZD8895 (antibody) | 0.6 | 1.7 |  |  |  |  |  |  |
| Sotrovimab VH/VL (human IgG1 molecule expressing the same variable regions of Sotrovimab) (antibody) | 99.4 | 101 | 0.0274 | 0.0089 | 0.032 | 0.014 |  |  |
| bebtelovimab (antibody) |  |  |  |  |  |  | 8 | 6.99 |
